We go through 167 variants from the Human Domainome abundance scans (Beltran et al. 2025).

± gives the uncertainty stated by the source.

To fix the notation:
B1: Lysine-specific demethylase 5C, residues 319 to 373; numbered along this chain, P41229 (parent)
chain: AQFIESYVCRMCSRGDEDDKLLLCDGCDDNYHIFCLLPPLPEIPKGVWRCPKCVM

In the data set the parent is B1. In words: abundance fitness (aPCA) (normalised: wild type 0, dead -1); higher = more abundant; growth selection in yeast, the domain comes from the species named. The note with it: Homo sapiens.
As for L22A, the abundance fitness was -0.243 ± 0.098.

With L22S, the abundance fitness was -0.474 ± 0.092.

For L22D, the abundance fitness is -1.1 ± 0.37.

In the case of L22Q, the abundance fitness was -0.561 ± 0.23.

For the variant L22G, the abundance fitness was -0.912 ± 0.16.

Turning to L22N, the abundance fitness is -0.4 ± 0.14.

Take L22Y: the abundance fitness was -1.07 ± 0.45.

Turning to L22W, the abundance fitness is -0.838 ± 0.16.

L22V: the abundance fitness is -0.163 ± 0.11.

Consider V8N, for which the abundance fitness was found to be 0.083 ± 0.22.

V8K: the abundance fitness is 0.254 ± 0.19.

V8Y: the abundance fitness was -0.157 ± 0.2.

For the variant V8G, the abundance fitness was -0.106 ± 0.12.

For the variant V8W, the abundance fitness was -0.247 ± 0.16.

Take V8F: the abundance fitness is -0.28 ± 0.24.

As to S6C, the abundance fitness was -0.361 ± 0.19.

For S6V, the abundance fitness is -0.377 ± 0.19.

Turning to S6Q, the abundance fitness was -0.409 ± 0.22.

As for S6Y, the abundance fitness was -0.1 ± 0.24.

With S6I, the abundance fitness was -0.445 ± 0.2.

In the case of S6K, the abundance fitness is -0.295 ± 0.25.

S6P: the abundance fitness was -0.097 ± 0.17.

Consider S6A, for which the abundance fitness is -0.068 ± 0.19.

For S6N, the abundance fitness is 0.183 ± 0.19.

Take S6G: the abundance fitness was -0.042 ± 0.15.

For S6M, the abundance fitness worked out at 0.217 ± 0.13.

With S6H, the abundance fitness was -0.294 ± 0.23.

As for E5R, the abundance fitness turned out to be 0.046 ± 0.12.

Consider E5H, for which the abundance fitness was -0.263 ± 0.28.

As to E5G, the abundance fitness was -0.128 ± 0.13.

With E5V, the abundance fitness was -0.481 ± 0.11.

For the variant E5Y, the abundance fitness was -0.162 ± 0.18.

As for E5I, the abundance fitness was -0.283 ± 0.17.

Take E5Q: the abundance fitness turned out to be 0.02 ± 0.17.

In the case of E5P, the abundance fitness was -0.435 ± 0.21.

D19Q: the abundance fitness was -0.014 ± 0.13.

Take D19K: the abundance fitness turned out to be 0.064 ± 0.094.

In the case of D19E, the abundance fitness was -0.091 ± 0.16.

Turning to D19C, the abundance fitness was 0.019 ± 0.11.

As to D19T, the abundance fitness was found to be 0.242 ± 0.097.

For the variant D19G, the abundance fitness turned out to be 0.08 ± 0.1.

Regarding D19S, the abundance fitness was -0.089 ± 0.072.

On to D19F, for which the abundance fitness is -0.103 ± 0.1.

Consider D19H, for which the abundance fitness is -0.032 ± 0.098.

For D19P, the abundance fitness is -0.15 ± 0.098.

Turning to L40F, the abundance fitness was -0.678 ± 0.46.

With C50N, the abundance fitness is -0.927 ± 0.48.

For the variant C50V, the abundance fitness is -1.05 ± 0.19.

Turning to C50E, the abundance fitness is -0.992 ± 0.24.

On to C50R, for which the abundance fitness is -0.926 ± 0.14.

As for C50I, the abundance fitness was -0.757 ± 0.35.

Turning to C50L, the abundance fitness was -0.702 ± 0.14.

As for C50A, the abundance fitness is -0.887 ± 0.19.

On to K45A, for which the abundance fitness was -0.176 ± 0.15.

As for K45C, the abundance fitness was -0.156 ± 0.14.

As to K45I, the abundance fitness was -0.25 ± 0.23.

Consider K45R, for which the abundance fitness was -0.067 ± 0.12.

K45T: the abundance fitness was -0.003 ± 0.17.

With N30M, the abundance fitness is -0.206 ± 0.13.

On to N30D, for which the abundance fitness is -0.774 ± 0.23.

As for N30Y, the abundance fitness was -0.143 ± 0.15.

As to N30Q, the abundance fitness was 0.157 ± 0.11.

For the variant N30S, the abundance fitness was -0.068 ± 0.089.

As for N30C, the abundance fitness was determined as 0.006 ± 0.12.

On to N30V, for which the abundance fitness worked out at 0.152 ± 0.081.

K20N: the abundance fitness is -0.327 ± 0.23.

In the case of K20V, the abundance fitness was -0.253 ± 0.14.

As for K20R, the abundance fitness was -0.136 ± 0.15.

For the variant K20M, the abundance fitness is -0.596 ± 0.2.

Turning to K20T, the abundance fitness came out at 0.096 ± 0.13.

In the case of K20L, the abundance fitness was -0.087 ± 0.099.

For K20Q, the abundance fitness was -0.093 ± 0.14.

Consider K20A, for which the abundance fitness was -0.065 ± 0.13.

For the variant C27Q, the abundance fitness was -0.522 ± 0.2.

As for C27L, the abundance fitness is -0.842 ± 0.16.

As for C27A, the abundance fitness is -0.921 ± 0.33.

As to C27R, the abundance fitness is -0.759 ± 0.11.

In the case of C27D, the abundance fitness is -0.646 ± 0.29.

For D16F, the abundance fitness stood at 0.277 ± 0.17.

For the variant D16R, the abundance fitness was -0.026 ± 0.1.

Turning to D16E, the abundance fitness was -0.072 ± 0.12.

For the variant D16N, the abundance fitness came to 0.131 ± 0.18.

For R14S, the abundance fitness worked out at 0.188 ± 0.16.

On to P38E, for which the abundance fitness was -0.191 ± 0.19.

Turning to P38F, the abundance fitness is -0.564 ± 0.16.

Turning to P38I, the abundance fitness is -0.62 ± 0.31.

With P38D, the abundance fitness was -0.35 ± 0.2.

As for P38H, the abundance fitness was -0.12 ± 0.17.

On to I33L, for which the abundance fitness was -0.496 ± 0.5.

For K52Y, the abundance fitness was -0.286 ± 0.24.

On to K52A, for which the abundance fitness came out at 0.02 ± 0.12.

For the variant K52V, the abundance fitness was -0.123 ± 0.12.

As to K52E, the abundance fitness is -0.23 ± 0.15.

Consider K52H, for which the abundance fitness was -0.184 ± 0.2.

For the variant K52F, the abundance fitness is -0.14 ± 0.23.

For K52T, the abundance fitness worked out at 0.018 ± 0.13.

Regarding K52M, the abundance fitness was -0.611 ± 0.27.

As for K52Q, the abundance fitness is -0.065 ± 0.19.

On to P51F, for which the abundance fitness is -0.048 ± 0.2.

P51L: the abundance fitness was -0.671 ± 0.14.

P51H: the abundance fitness is -0.015 ± 0.17.

On to P51Y, for which the abundance fitness is -0.312 ± 0.26.

For Q2F, the abundance fitness was -0.531 ± 0.26.

Turning to Q2C, the abundance fitness is -0.446 ± 0.31.

Turning to Q2A, the abundance fitness is -0.273 ± 0.43.

Regarding Q2K, the abundance fitness worked out at 0.247 ± 0.33.

Regarding Q2N, the abundance fitness is -0.019 ± 0.19.

As to D29N, the abundance fitness was found to be 0.274 ± 0.24.

In the case of D29Y, the abundance fitness worked out at 0.036 ± 0.26.

With D29R, the abundance fitness came out at 0.004 ± 0.17.

Regarding F3M, the abundance fitness is 0.095 ± 0.17.

On to F3H, for which the abundance fitness is -0.095 ± 0.2.

Take F3Y: the abundance fitness is -0.043 ± 0.19.

For the variant F3E, the abundance fitness was -0.114 ± 0.2.

For the variant F3A, the abundance fitness is -0.12 ± 0.12.

Take F3W: the abundance fitness was -0.639 ± 0.28.

Regarding F3Q, the abundance fitness was -0.201 ± 0.18.

L37M: the abundance fitness turned out to be 0.054 ± 0.15.

L37I: the abundance fitness was -0.043 ± 0.22.

Regarding L37Y, the abundance fitness is -0.328 ± 0.15.

As to L37V, the abundance fitness was -0.083 ± 0.13.

L37C: the abundance fitness was -0.137 ± 0.14.

Take L37Q: the abundance fitness was -0.108 ± 0.16.

For the variant L37D, the abundance fitness was found to be 0.122 ± 0.16.

For the variant L37E, the abundance fitness is -0.073 ± 0.14.

Take L37N: the abundance fitness was 0.172 ± 0.19.

Regarding L37A, the abundance fitness is -0.02 ± 0.13.

Take R10Q: the abundance fitness is -0.609 ± 0.45.

Regarding R10V, the abundance fitness is -0.137 ± 0.16.

In the case of R10Y, the abundance fitness is -0.175 ± 0.44.

Consider D25P, for which the abundance fitness was -0.355 ± 0.1.

Take D25W: the abundance fitness is -0.383 ± 0.18.

On to D25C, for which the abundance fitness is -0.274 ± 0.12.

With D25K, the abundance fitness was -0.199 ± 0.17.

Consider D25E, for which the abundance fitness is -0.246 ± 0.16.

Regarding D25N, the abundance fitness is -0.293 ± 0.1.

As for D25T, the abundance fitness is -0.016 ± 0.1.

As to Y31Q, the abundance fitness is -0.727 ± 0.14.

With Y31I, the abundance fitness is -0.261 ± 0.27.

As for Y31T, the abundance fitness was -0.678 ± 0.16.

Take Y31C: the abundance fitness was -0.514 ± 0.22.

With Y31R, the abundance fitness was -0.641 ± 0.11.

For the variant Y31D, the abundance fitness was -0.776 ± 0.18.

With V54S, the abundance fitness was -0.261 ± 0.14.

For V54R, the abundance fitness is -0.131 ± 0.13.

Take V54H: the abundance fitness was 0.002 ± 0.29.

As for V54L, the abundance fitness was -0.196 ± 0.15.

As for V54W, the abundance fitness was -0.836 ± 0.36.

Regarding V54M, the abundance fitness is -0.145 ± 0.19.

As to V54E, the abundance fitness was -0.367 ± 0.22.

Consider A1I, for which the abundance fitness worked out at 0.146 ± 0.47.

Turning to A1E, the abundance fitness was -0.143 ± 0.26.

On to A1T, for which the abundance fitness is -0.704 ± 0.3.

Take A1W: the abundance fitness is -0.242 ± 0.34.

In the case of A1M, the abundance fitness was 0.135 ± 0.47.

On to A1D, for which the abundance fitness was -0.009 ± 0.44.

G26W: the abundance fitness was -0.375 ± 0.2.

Regarding G26A, the abundance fitness was found to be 0.161 ± 0.13.

Turning to G26K, the abundance fitness is 0.133 ± 0.14.

Regarding G26Q, the abundance fitness is -0.129 ± 0.17.

As for G26D, the abundance fitness was -0.034 ± 0.16.

G26T: the abundance fitness turned out to be 0.004 ± 0.16.

M11H: the abundance fitness was -0.281 ± 0.22.

As for M11E, the abundance fitness was found to be 0.171 ± 0.14.

As for M11L, the abundance fitness is -0.264 ± 0.093.

As for M11I, the abundance fitness is -0.121 ± 0.21.

Turning to M11T, the abundance fitness was -0.211 ± 0.16.
